The supplement of paper PMC10126150
± gives the standard deviation of the averaged measurements.

Tested on: ATP
Assay: switch fluorescence ratio, 500 uM ATP over buffer (Cy3 cluster intensity, sum of 5 cycles each) (fold (ratio)); higher = stronger signal-on switching upon ATP binding; sequences stand for … in TCGTCGGCAGCGTCAGATGTGTATAAGAGACAGTTTTTTTTTTTTTTTTTTTTTTTTT…TC
Details: aptamer strand: ATP DNA aptamer (quencher-CACCTGGGGGAGTATTGCGGAGGAAGG + anchor), 100 nM annealed; ATP concentration: 500 uM
Method in brief: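 Per cluster, summed Cy3 intensity from the target cycles was divided by that from the buffer cycles to give the fluorescence ratio, then averaged per switch-domain sequence. Clusters outside 100-1000 RFU were excluded. The Cy3-labelled switching-strand clusters, on a modified Illumina MiSeq flow-cell, were annealed to 100 nM quencher-labelled ATP aptamer and imaged in selection buffer, then after 15 min with 500 uM ATP at 22 °C, for five cycles with NaOH stripping and re-annealing between them.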
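Note: ATP exposure 15 min at 22 °C before imaging.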

Sequence | switch fluorescence ratio
CGCGGCTTGG | 1.01 ± 0.018
CGCGGGGCAC | 1.062 ± 0.0025
CGCGGGGTAC | 1.66 ± 0.26
CGCGGTAGTC | 1.1 ± 0.046
CGCGGTTTGT | 0.988 ± 0.017
CGCGTCAGCC | 0.979 ± 0.073
CGCGTCGCTG | 0.9811 ± 0.0012
CGCGTGTCTG | 1.022 ± 0.0039
CGCGTTGTGC | 1.11 ± 0.021
CGCGTTTTTT | 1.07 ± 0.12
CGCTAATCAG | 1.05 ± 0.043
CGCTAATGCG | 1.04 ± 0.059
CGCTACGGAG | 1.02 ± 0.029
CGCTATAAGG | 1.03 ± 0.017
CGCTATGGGG | 1.02 ± 0.059
CGCTATGTGG | 1.02 ± 0.041
CGCTATTGTT | 1.028 ± 0.0065
CGCTATTTTA | 1.04 ± 0.039
CGCTCAGGAC | 1.29 ± 0.1
CGCTCTTGTA | 0.991 ± 0.012
CGCTGATTTG | 1.002 ± 0.0074
CGCTGCGGTT | 1.01 ± 0.05
CGCTGGACGG | 1.023 ± 0.0098
CGCTGGATAG | 1.08 ± 0.051
CGCTGGGGAT | 1.04 ± 0.027
CGCTGGGTCA | 1.04 ± 0.13

Sequence | switch fluorescence ratio
CGCTGGGTTT | 0.976 ± 0.035
CGCTGTGCGG | 0.99 ± 0.052
CGCTGTTGGT | 0.9997 ± 0.0098
CGCTTAAGAG | 1.02 ± 0.014
CGCTTAATTG | 1.01 ± 0.051
CGCTTATGGA | 1.003 ± 0.0032
CGCTTGACTT | 0.985 ± 0.028
CGCTTGGTTT | 0.9911 ± 0.0063
CGCTTTAATT | 0.989 ± 0.032
CGCTTTTTTG | 1.01 ± 0.032
CGGAAAGAAA | 1.06 ± 0.058
CGGAAAGGGT | 1.01 ± 0.027
CGGAAATAT | 1.023 ± 0.0046
CGGAAATTGG | 0.982 ± 0.012
CGGAAATTTG | 1.02 ± 0.032
CGGAACAGTT | 1.02 ± 0.024
CGGAAGAATT | 0.99422 ± 0.00026
CGGAAGATAG | 1.027 ± 0.0066
CGGAAGCTTT | 1.04 ± 0.021
CGGAAGGGTA | 0.989 ± 0.036
CGGAAGTATG | 1.04 ± 0.025
CGGAAGTTCG | 0.9774 ± 0.0048
CGGAATTTGG | 1.02 ± 0.041
CGGACCAACG | 1.09 ± 0.019
CGGACGGAAG | 1.01 ± 0.0078
CGGACGGTTG | 1.01 ± 0.042

Sequence | switch fluorescence ratio
CGGACTGGGA | 1.007 ± 0.0052
CGGAGACTTG | 0.973 ± 0.068
CGGAGAGGCA | 0.974 ± 0.032
CGGAGATTAC | 2.25 ± 0.035
CGGAGCAGGA | 1.48 ± 0.17
CGGAGCAGGT | 2.09 ± 0.42
CGGAGCCAGG | 1.43 ± 0.02
CGGAGGGAGT | 1.78 ± 1.1
CGGAGGGGTC | 1.02 ± 0.02
CGGAGGGGTG | 1.02 ± 0.022
CGGAGGTGTA | 1.4 ± 0.67
CGGAGTCTGT | 1.1 ± 0.048
CGGAGTTATG | 1.09 ± 0.04
CGGAGTTGGG | 0.9863 ± 0.0044
CGGATAATTT | 1.01 ± 0.047
CGGATAGAAT | 0.984 ± 0.029
CGGATAGAGG | 0.964 ± 0.012
CGGATATGCG | 1.06 ± 0.085
CGGATCATCA | 1 ± 0.021
CGGATCGTCG | 0.984 ± 0.038
CGGATGAGGT | 0.987 ± 0.052
CGGATGGAGT | 0.99128 ± 1.1e-05
CGGATGGGAA | 0.995 ± 0.024
CGGATGTGTA | 1.002 ± 0.01
CGGATGTTAC | 1.171 ± 0.0093
CGGATTAGTG | 0.964 ± 0.018

Sequence | switch fluorescence ratio
CGGATTATTT | 0.984 ± 0.037
CGGATTTGAC | 1.015 ± 0.0028
CGGCAAGAGT | 1.479 ± 0.0019
CGGCAATGTT | 1.73 ± 0.14
CGGCAGAAAT | 0.967 ± 0.022
CGGCAGGATG | 1.01 ± 0.024
CGGCAGTAAT | 1.471 ± 0.003
CGGCATCGAA | 0.985 ± 0.036
CGGCATGTCT | 0.997 ± 0.076
CGGCCAATAA | 3.19 ± 0.12
CGGCGAACTC | 1.11 ± 0.033
CGGCGAAGTT | 0.9883 ± 0.0046
CGGCGGCACG | 0.998 ± 0.086
CGGCGGGGGC | 0.998 ± 0.022
CGGCGGGGGG | 1.08 ± 0.22
CGGCGTACTA | 1.06 ± 0.014
CGGCGTCCGT | 1.01 ± 0.037
CGGCTACATT | 0.9995 ± 0.0034
CGGCTAGACG | 0.9994 ± 0.0057
CGGCTTAGAT | 0.984 ± 0.028
CGGCTTATGT | 0.9807 ± 0.0029
CGGCTTGCGG | 1.03 ± 0.015
CGGCTTTTTT | 0.959 ± 0.012
CGGGAACCTT | 1.283 ± 0.01
CGGGAACTCG | 1.01 ± 0.04
CGGGAACTGT | 0.964 ± 0.07

Sequence | switch fluorescence ratio
CGGGAAGGGG | 1.02 ± 0.03
CGGGAAGTGG | 0.996 ± 0.03
CGGGAAGTTT | 0.999 ± 0.032
CGGGAATTGG | 0.961 ± 0.067
CGGGACGTTT | 1.01 ± 0.013
CGGGAGAACT | 0.987 ± 0.026
CGGGAGCGGA | 0.995 ± 0.018
CGGGAGCGTC | 1.02 ± 0.01
CGGGAGCTTT | 1.07 ± 0.012
CGGGAGGGTC | 1.06 ± 0.012
CGGGAGGTTT | 0.9854 ± 0.0083
CGGGATAATG | 0.994 ± 0.021
CGGGATTAGC | 0.983 ± 0.022
CGGGATTATC | 1.01 ± 0.021
CGGGATTGAG | 0.979 ± 0.0058
CGGGATTGGG | 0.96 ± 0.061
CGGGCAGGTA | 1.044 ± 0.0039
CGGGCAGTTT | 1.03 ± 0.041
CGGGCCCTGA | 0.977 ± 0.013
CGGGCGCGTT | 0.984 ± 0.054
CGGGCTTCTA | 1.04 ± 0.053
CGGGGAAAGA | 0.978 ± 0.03
CGGGGAACTT | 1.01 ± 0.019
CGGGGAATAT | 0.993 ± 0.017
CGGGGACGGT | 0.9631 ± 0.0064
CGGGGAGGAA | 1.01 ± 0.072

Sequence | switch fluorescence ratio
CGGGGAGGGA | 1.03 ± 0.019
CGGGGATAAG | 0.981 ± 0.011
CGGGGATAGG | 1.041 ± 0.0075
CGGGGATATG | 0.9607 ± 0.0029
CGGGGATTTT | 1.01 ± 0.051
CGGGGCAAAA | 1.04 ± 0.027
CGGGGCATGG | 1 ± 0.039
CGGGGCCATG | 1.02 ± 0.068
CGGGGCCTGG | 0.959 ± 0.021
CGGGGCGCTA | 1.21 ± 0.29
CGGGGCGGCG | 0.986 ± 0.002
CGGGGCTATT | 0.999 ± 0.03
CGGGGCTGGC | 1.2 ± 0.13
CGGGGGACGC | 0.993 ± 0.06
CGGGGGAGTG | 0.975 ± 0.025
CGGGGGATGT | 0.999 ± 0.024
CGGGGGATT | 1.03 ± 0.02
CGGGGGCCGT | 0.936 ± 0.014
CGGGGGCGTT | 1 ± 0.018
CGGGGGCTG | 1 ± 0.039
CGGGGGCTGG | 0.989 ± 0.059
CGGGGGCTTT | 0.99 ± 0.017
CGGGGGGGCA | 1 ± 0.038
